T1: hBCMA (human BCMA) (Homo sapiens, UniProt Q02223)
T1 sequence (Q02223 1-184): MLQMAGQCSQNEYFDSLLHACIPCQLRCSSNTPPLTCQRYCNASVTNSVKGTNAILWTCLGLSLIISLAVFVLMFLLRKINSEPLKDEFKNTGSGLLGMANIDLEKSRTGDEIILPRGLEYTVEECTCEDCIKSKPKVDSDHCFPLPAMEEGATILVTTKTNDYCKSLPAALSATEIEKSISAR


Legend:
hBCMA (human BCMA) = biological target: T1, hBCMA (human BCMA); assay: Kinetics and affinity of hBCMA/human IgG interactions by SPR (Bio-Rad Proteon XPR36); format: binding; details: huBCMA
Procedure: All experiments were performed on a Bio-Rad Proteon XPR36 surface Plasmon resonance biosensor (Bio-Rad, Hercules, Calif.). An array of anti-BCMA antibodies was prepared using an amine-coupling method on a Bio-Rad GLC Sensor Chip similar to that described in Abdiche, et al., Anal. Biochem. 411, 139-151 (2011). The analysis temperature for the immobilization was 25° C. and the running buffer was HBS-T+(10 mM HEPES, 150 mM NaCl, 0.05% Tween-20, pH 7.4). Channels were activated in the analyte (horizontal) direction by injecting a mixture of 1 mM ECD and 0.25 mM NHS for 3 minutes at a flow rate of 30 μL/min. IgGs were immobilized on the activated spots by injecting them in the ligand (vertical) direction at 20 μg/mL in 10 mM Acetate pH 4.5 buffer for 1.5 minutes at […]. The activated surfaces were blocked by injecting 1M ethanolamine, pH 8.5 in the analyte direction for 3 minutes at 30 μL/min.
The analysis temperature for the hBCMA binding analysis was 37° C. or 25° C. in a running buffer of HBS-T+, supplemented with 1 mg/mL BSA. A kinetic titration method was employed for the interaction analysis as described in Abdiche, et al. The hBCMA (human BCMA) analyte was injected in the analyte direction using a series of injections from low to high concentration. The concentrations used were 0.08 nM, 0.4 nM, 2 nM, 10 nM and 50 nM (a 5-membered series, with a 5-fold dilution factor and top concentration of 50 nM). The association time for a given analyte dilution was two minutes. Immediately after the 50 nM hBCMA injection, dissociation was monitored for 2 hours. Prior to the hBCMA analyte injections, buffer was injected 5 times using the same association and dissociation times at the hBCMA analyte cycles to prepare a buffer blank sensorgram for double-referencing purposes (double referencing as described in Myszka, J. Mol. Recognit. 12, 279-284 (1999).
The sensorgrams were double-referenced and fit to a 1:1 Langmuir with mass transport kinetic titration model in BIAevaluation Software version 4.1.1 (GE Lifesciences, Piscataway, N.J.). The sensorgrams and fits are shown in FIG. 1, and the kinetics and affinity parameters for various anti-BCMA antibodies of the present invention are shown in Tables 6A-6C.

cyBCMA = assay: Kinetics and affinity of cyBCMA/human IgG interactions by SPR (Bio-Rad Proteon XPR36); format: binding, cynomolgus

ka (1/Ms) huBCMA @ 37° C. (hBCMA (human BCMA)) | kd (1/s) huBCMA @37° C. (hBCMA (human BCMA)) | kd (1/s) cyBCMA @37° C. (cyBCMA) | ka (1/Ms) huBCMA @ 25° C. (hBCMA (human BCMA)) | kd (1/s) huBCMA @25° C. (hBCMA (human BCMA)) | kd (1/s) cyBCMA @25° C. (cyBCMA) | Molecule | ka (1/Ms) cyBCMA @ 37° C. (cyBCMA) | ka (1/Ms) cyBCMA @ 25° C. (cyBCMA)
3.12e+06 M⁻¹ s⁻¹ | 0.00147 s⁻¹ | 0.00796 s⁻¹ | – | – | – | L3.PY/L3.KF/H3.YA: anti-BCMA antibody (antibody, V domains shown) VH: EVQLLESGGGLVQPGGSLRLSCAASGFTFGSYAMTWVRQAPGKGLEWVSAISGSGGNTFYADSVKGRFTISRDNSKNTLYLQMNSLRAEDTAVYYCARVSPIYAGMDYWGQGTLVTVSS VL: EIVLTQSPGTLSLSPGERATLSCRASQSVSSSYLAWYQQKPGQAPRLLIYGASSRATGIPDRFSGSGSGTDFTLTISRLEPEDFAVYYCKFYPYPPSFTFGQGTKVEIK | 2.1e+06 M⁻¹ s⁻¹ | –
2.82e+06 M⁻¹ s⁻¹ | 0.00162 s⁻¹ | 0.00191 s⁻¹ | – | – | – | L3.PY/L3.KF/H3.TAQ: anti-BCMA antibody (antibody, V domains shown) VH: EVQLLESGGGLVQPGGSLRLSCAASGFTFGSYAMTWVRQAPGKGLEWVSAISGSGGNTFYADSVKGRFTISRDNSKNTLYLQMNSLRAEDTAVYYCTRVSPIAAQMDYWGQGTLVTVSS VL: EIVLTQSPGTLSLSPGERATLSCRASQSVSSSYLAWYQQKPGQAPRLLIYGASSRATGIPDRFSGSGSGTDFTLTISRLEPEDFAVYYCKFYPYPPSFTFGQGTKVEIK | 2.01e+06 M⁻¹ s⁻¹ | –
– | – | – | 445000 M⁻¹ s⁻¹ | 0.0039 s⁻¹ | 0.018 s⁻¹ | L1.GDF/L3.KW/H3.AL: anti-BCMA antibody (antibody, V domains shown) VH: EVQLLESGGGLVQPGGSLRLSCAASGFTFGSYAMTWVRQAPGKGLEWVSAISGSGGNTFYADSVKGRFTISRDNSKNTLYLQMNSLRAEDTAVYYCARVSPIAALMDYWGQGTLVTVSS VL: EIVLTQSPGTLSLSPGERATLSCRASQSVGDFYLAWYQQKPGQAPRLLIYGASSRATGIPDRFSGSGSGTDFTLTISRLEPEDFAVYYCKHYGWPPSFTFGQGTKVEIK | – | 318000 M⁻¹ s⁻¹
– | – | – | 1.41e+06 M⁻¹ s⁻¹ | 0.00141 s⁻¹ | 0.00702 s⁻¹ | L1.GDF/L3.NY/H3.AP: anti-BCMA antibody (antibody, V domains shown) VH: EVQLLESGGGLVQPGGSLRLSCAASGFTFGSYAMTWVRQAPGKGLEWVSAISGSGGNTFYADSVKGRFTISRDNSKNTLYLQMNSLRAEDTAVYYCARVSPIAAPMDYWGQGTLVTVSS VL: EIVLTQSPGTLSLSPGERATLSCRASQSVGDFYLAWYQQKPGQAPRLLIYGASSRATGIPDRFSGSGSGTDFTLTISRLEPEDFAVYYCQHYNYPPSFTFGQGTKVEIK | – | 1.36e+06 M⁻¹ s⁻¹
– | – | – | 763000 M⁻¹ s⁻¹ | 0.00097 s⁻¹ | 0.0148 s⁻¹ | L1.LGF/L3.NY/H3.AL: anti-BCMA antibody (antibody, V domains shown) VH: EVQLLESGGGLVQPGGSLRLSCAASGFTFGSYAMTWVRQAPGKGLEWVSAISGSGGNTFYADSVKGRFTISRDNSKNTLYLQMNSLRAEDTAVYYCARVSPIAALMDYWGQGTLVTVSS VL: EIVLTQSPGTLSLSPGERATLSCRASQSLGSFYLAWYQQKPGQAPRLLIYGASSRATGIPDRFSGSGSGTDFTLTISRLEPEDFAVYYCQHYNYPPSFTFGQGTKVEIK | – | 635000 M⁻¹ s⁻¹
– | – | – | 936000 M⁻¹ s⁻¹ | 0.000533 s⁻¹ | 0.00557 s⁻¹ | L1.LGF/L3.NY/H3.AP: anti-BCMA antibody (antibody, V domains shown) VH: EVQLLESGGGLVQPGGSLRLSCAASGFTFGSYAMTWVRQAPGKGLEWVSAISGSGGNTFYADSVKGRFTISRDNSKNTLYLQMNSLRAEDTAVYYCARVSPIAAPMDYWGQGTLVTVSS VL: EIVLTQSPGTLSLSPGERATLSCRASQSLGSFYLAWYQQKPGQAPRLLIYGASSRATGIPDRFSGSGSGTDFTLTISRLEPEDFAVYYCQHYNYPPSFTFGQGTKVEIK | – | 830000 M⁻¹ s⁻¹
– | – | – | 428000 M⁻¹ s⁻¹ | 0.00123 s⁻¹ | 0.0121 s⁻¹ | L1.LGF/L3.KW/H3.AL: anti-BCMA antibody (antibody, V domains shown) VH: EVQLLESGGGLVQPGGSLRLSCAASGFTFGSYAMTWVRQAPGKGLEWVSAISGSGGNTFYADSVKGRFTISRDNSKNTLYLQMNSLRAEDTAVYYCARVSPIAALMDYWGQGTLVTVSS VL: EIVLTQSPGTLSLSPGERATLSCRASQSLGSFYLAWYQQKPGQAPRLLIYGASSRATGIPDRFSGSGSGTDFTLTISRLEPEDFAVYYCKHYGWPPSFTFGQGTKVEIK | – | 290000 M⁻¹ s⁻¹
– | – | – | 907000 M⁻¹ s⁻¹ | 0.00403 s⁻¹ | 0.0219 s⁻¹ | L1.GDF/L3.NY/H3.AL: anti-BCMA antibody (antibody, V domains shown) VH: EVQLLESGGGLVQPGGSLRLSCAASGFTFGSYAMTWVRQAPGKGLEWVSAISGSGGNTFYADSVKGRFTISRDNSKNTLYLQMNSLRAEDTAVYYCARVSPIAALMDYWGQGTLVTVSS VL: EIVLTQSPGTLSLSPGERATLSCRASQSVGDFYLAWYQQKPGQAPRLLIYGASSRATGIPDRFSGSGSGTDFTLTISRLEPEDFAVYYCQHYNYPPSFTFGQGTKVEIK | – | 900000 M⁻¹ s⁻¹
– | – | – | 1.17e+06 M⁻¹ s⁻¹ | 0.00461 s⁻¹ | 0.0203 s⁻¹ | L1.GDF/L3.KW/H3.AP: anti-BCMA antibody (antibody, V domains shown) VH: EVQLLESGGGLVQPGGSLRLSCAASGFTFGSYAMTWVRQAPGKGLEWVSAISGSGGNTFYADSVKGRFTISRDNSKNTLYLQMNSLRAEDTAVYYCARVSPIAAPMDYWGQGTLVTVSS VL: EIVLTQSPGTLSLSPGERATLSCRASQSVGDFYLAWYQQKPGQAPRLLIYGASSRATGIPDRFSGSGSGTDFTLTISRLEPEDFAVYYCKHYGWPPSFTFGQGTKVEIK | – | 814000 M⁻¹ s⁻¹
– | – | – | 928000 M⁻¹ s⁻¹ | 0.00227 s⁻¹ | 0.0154 s⁻¹ | L1.LGF/L3.KW/H3.AP: anti-BCMA antibody (antibody, V domains shown) VH: EVQLLESGGGLVQPGGSLRLSCAASGFTFGSYAMTWVRQAPGKGLEWVSAISGSGGNTFYADSVKGRFTISRDNSKNTLYLQMNSLRAEDTAVYYCARVSPIAAPMDYWGQGTLVTVSS VL: EIVLTQSPGTLSLSPGERATLSCRASQSLGSFYLAWYQQKPGQAPRLLIYGASSRATGIPDRFSGSGSGTDFTLTISRLEPEDFAVYYCKHYGWPPSFTFGQGTKVEIK | – | 554000 M⁻¹ s⁻¹
– | – | – | 457000 M⁻¹ s⁻¹ | 0.000969 s⁻¹ | 0.013 s⁻¹ | L1.LGF/L3.PY/H3.AP: anti-BCMA antibody (antibody, V domains shown) VH: EVQLLESGGGLVQPGGSLRLSCAASGFTFGSYAMTWVRQAPGKGLEWVSAISGSGGNTFYADSVKGRFTISRDNSKNTLYLQMNSLRAEDTAVYYCARVSPIAAPMDYWGQGTLVTVSS VL: EIVLTQSPGTLSLSPGERATLSCRASQSLGSFYLAWYQQKPGQAPRLLIYGASSRATGIPDRFSGSGSGTDFTLTISRLEPEDFAVYYCQHYPYPPSFTFGQGTKVEIK | – | 364000 M⁻¹ s⁻¹
3.07e+06 M⁻¹ s⁻¹ | 0.00155 s⁻¹ | 0.00564 s⁻¹ | – | – | – | L3.PY/L3.KF/H3.AE: anti-BCMA antibody (antibody, V domains shown) VH: EVQLLESGGGLVQPGGSLRLSCAASGFTFGSYAMTWVRQAPGKGLEWVSAISGSGGNTFYADSVKGRFTISRDNSKNTLYLQMNSLRAEDTAVYYCARVSPIAAEMDYWGQGTLVTVSS VL: EIVLTQSPGTLSLSPGERATLSCRASQSVSSSYLAWYQQKPGQAPRLLIYGASSRATGIPDRFSGSGSGTDFTLTISRLEPEDFAVYYCKFYPYPPSFTFGQGTKVEIK | 1.85e+06 M⁻¹ s⁻¹ | –
